Data on 1 molecule can be found in article PMC4706430, “In Vitro Mode of Action and Anti-thrombotic Activity of Boophilin, a Multifunctional Kunitz Protease Inhibitor from the Midgut of a Tick Vector of Babesiosis, Rhipicephalus microplus” (PLoS Neglected Tropical Diseases, 2016).

In general, Kd refers to the concentration at which binding is half-saturated. As a reminder, the koff is the first-order rate constant of dissociation. A word on the kon: it is a measure of how fast the partners come together.

Assay [1] concerns the target T1, FXIa (human, UniProt P03951 19-387; P03951 388-625).
T1 construct: coagulation factor XIa heavy chain; coagulation factor XIa light (catalytic) chain; for the Enzyme Research Laboratories FXIa no species is printed; also called Factor XIa; source: bought: Enzyme Research Laboratories (reagents list); bought: Molecular Innovations (protease screen); copies: 2 + 2
Briefly: SPR; Biacore T100; FXIa immobilised on CM5 by amine coupling (1280.4 RU); Boophilin (31.25-500 nM) injected 120 s, dissociation 600 s, 30 μL/minute, 25°C, HBS-P pH 7.4; global 1:1 Langmuir fit. The note with it: both partners purified.

Assay [2] deals with T2, α-thrombin (human, UniProt P00734 364-622). Briefly: enzyme inhibition kinetics (chromogenic substrate hydrolysis); Lineweaver-Burk plots and re-plot of the slope against Boophilin concentration; Boophilin (0-1280 nM) with S2238 or S2366 (125-750 μM), then thrombin (0.2 nM) or FXIa (0.5 nM); TBS-BSA pH 7.4. The note with it: both partners purified.
Assay [3] deals with T1, FXIa. Described as above. The conditions noted are these: both partners purified.
For assay [4], the target named is T2, α-thrombin. Nature of the assay: SPR; Biacore T100; Boophilin immobilised on CM5 by amine coupling (301.4 RU); thrombin (15.625-500 nM) injected 90 s, dissociation 180 s, 30 μL/minute, 25°C, HBS-P pH 7.4; global 1:1 Langmuir fit; α-thrombin, γ-thrombin and PPACK-thrombin also tested at 1 μM as analytes. The conditions noted are these: both partners purified.
Assay [5] addresses T2, α-thrombin. Briefly: cell-based or functional assay.
Another assay concerns the target kallikrein (human, UniProt P03952 20-638). Briefly: cell-based or functional assay.
For assay [6], the target named is T1, FXIa. Nature of the assay: enzyme inhibition kinetics (chromogenic substrate hydrolysis); apparent Ki from Vs/Vo against Boophilin concentration (0-640 nM); FXIa (10 nM) pre-incubated 1 hour with Boophilin, then S2366 (250 μM); TBS-BSA pH 7.4. The conditions noted are these: both partners purified.

T1 sequence (P03951 19-387, chain 1 of 2): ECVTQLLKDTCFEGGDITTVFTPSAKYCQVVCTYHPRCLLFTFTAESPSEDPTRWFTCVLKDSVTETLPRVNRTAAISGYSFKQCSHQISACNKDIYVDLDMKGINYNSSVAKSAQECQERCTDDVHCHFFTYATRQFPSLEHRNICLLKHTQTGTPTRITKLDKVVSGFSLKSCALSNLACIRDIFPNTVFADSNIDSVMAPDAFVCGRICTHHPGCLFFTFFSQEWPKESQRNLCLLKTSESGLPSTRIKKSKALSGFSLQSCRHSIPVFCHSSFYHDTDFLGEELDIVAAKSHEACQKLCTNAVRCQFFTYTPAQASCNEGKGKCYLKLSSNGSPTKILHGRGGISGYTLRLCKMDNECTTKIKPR
T1 sequence (P03951 388-625, chain 2 of 2): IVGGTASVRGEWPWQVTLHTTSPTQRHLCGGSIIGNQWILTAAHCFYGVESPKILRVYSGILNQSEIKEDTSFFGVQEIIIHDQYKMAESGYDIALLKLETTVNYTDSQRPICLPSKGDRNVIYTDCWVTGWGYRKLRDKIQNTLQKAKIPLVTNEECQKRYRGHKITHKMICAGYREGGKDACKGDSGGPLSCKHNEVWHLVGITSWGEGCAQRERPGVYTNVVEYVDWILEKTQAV
Chain of kallikrein (P03952 20-638): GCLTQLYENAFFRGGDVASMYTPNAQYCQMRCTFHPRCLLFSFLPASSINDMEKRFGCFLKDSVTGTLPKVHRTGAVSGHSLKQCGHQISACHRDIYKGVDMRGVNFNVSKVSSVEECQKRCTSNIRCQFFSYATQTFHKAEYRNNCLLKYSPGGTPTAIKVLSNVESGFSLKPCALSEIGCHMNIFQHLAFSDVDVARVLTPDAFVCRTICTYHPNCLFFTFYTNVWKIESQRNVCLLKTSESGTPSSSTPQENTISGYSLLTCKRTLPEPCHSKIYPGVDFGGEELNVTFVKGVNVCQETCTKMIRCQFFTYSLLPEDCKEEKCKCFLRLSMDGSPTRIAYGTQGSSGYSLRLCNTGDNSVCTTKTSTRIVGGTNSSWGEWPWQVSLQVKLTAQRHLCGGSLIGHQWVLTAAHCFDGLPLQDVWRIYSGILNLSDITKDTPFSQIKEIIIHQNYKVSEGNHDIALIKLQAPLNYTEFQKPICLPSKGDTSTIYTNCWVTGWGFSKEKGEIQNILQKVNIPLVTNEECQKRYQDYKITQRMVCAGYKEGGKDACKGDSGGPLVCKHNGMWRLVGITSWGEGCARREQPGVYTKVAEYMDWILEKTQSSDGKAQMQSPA

B1: Boophilin (natural protein)
chain: QRNGFCRLPADEGICKALIPRFYFNTETGKCTMFSYGGCGGNENNFETIEDCQKACGAPERVSDFEGADFKTGCEPAADSGSCAGQLERWFYNVRSGECETFVYGGCGGNDNNYESEEECELVCKNM
modifications: N-terminus blocked (Edman degradation)
In the case of B1, the Kd was approximately 125 nM in the assay with FXIa [1] and 116 nM in the assay with α-thrombin [4]. Further, the figures for the Ki with α-thrombin [2], with FXIa [3] and with FXIa [6] were 101 nM, 115 nM and approximately 82 nM, respectively. Also, in the assay with α-thrombin [4], the koff amounted to 0.36 s⁻¹. This molecule also showed a kon with α-thrombin [4] of 3e+06 M⁻¹ s⁻¹. In addition, the “IC50 of residual amidolytic activity (S-2238) of clot-bound thrombin (Fig 2H)” value in the assay with α-thrombin [5] was approximately 1000 nM. For the same molecule, the “IC50 of thrombin-mediated fibrin formation (thrombin 200 nM, fibrinogen 2 mg/mL; absorbance at 600 nm) (Fig 2G)” value with α-thrombin [5] was approximately 1000 nM. The “IC50 of the amidolytic activity of kallikrein (2 nM) on S2302, Boophilin 0-3200 nM, Vs/Vo (Fig 3G)” value with kallikrein was determined as 919000 nM.
